Source: the DeepSol protein solubility set

Test: soluble on expression in E. coli; label from the status in PepcDB or PDB records

Row | Sequence | soluble on expression in E. coli
1 | MGSDKIHHHHHHKAPLDEIADDSFWSDETLVKYYVNDLYSEISVDGLQLQENRSDNSVSAQRDKYRASWFKFNYDMVSASDPQDDDVWEDYYVKVRKCNRFFERIGTSTIEESEKSRLTGEVHFLRAMFYFEMVKRYGGVILLDKVLTMEDNWEIPRSSEKECYDFILEDLKKATEMLPASYGSREKGRATKGAAYALKSRVELYDKRYEDVIKSCAEVYKLGYELVDGTTPEKYRSIWWTTNKDNKEIIFDVQYKSPDVYNNMMVCNMVTYINDKYGDRGWGGLGPTQELIDAFEMADGTPATQYSQAPADQVFDINTCGIYEGREPRFYANIVFHGSQIFFNADKGAVTVDRYLMDTPDKGDGSLTGYNVWKWIDYDNYNYPYAGAGSPDFSTNWIILRYAEIYLNDAEARLETGDVEGARKAVNMIRQRVGLPDLTESDPEKLRELIRKERRIEFAFEEQRFYDVRRWKIGPETQTTLHGVRFVSPTEFKVTKTDIRTWNDRLYLTPVPHDEIVRSSVLKQNLGY | not soluble
2 | MTEEILKQGVGIVETSLTFEPPFCESFERISIDNFPIFALGKEISKEDGIEAMKKYVTSRFWFTYRRDFSPIGGTGPSTDQGWGCMLRCAQMLLGEVLLRRHIGRHFEWDIEKTSEIYEKILQMFFDEKDALYSIHQIAQMGVTEGKEVSKWFGPNTAAQVMKKLTIFDDWSNIAVHVALDNILVKEDAITMATSYPSEDAVKLIMGKKGLQTTKRKNRKNLDFTVKYLKQIKFFKFFNLFQIFYENGLVDKNRLSLSPGNIIPEWRPLLLMIPLRLGLTTINPCYLSAIQEFFKIPQCVGIIGGRPNHALYFVGMSGSKLFYLDPHYCRPKTESTAKMYAEKDSTATTDDVGFSHLEELVPLPSQTADVYTKMDDSTYHCQMMLWIEYENVDPSLALAMFCETRDEFENLCETLQKTTLPASQPPMFEFLQRRPKYLPKFEPYTGVSMKIEMKEFDDIGAANVKIDDDFEVLDVHTEEEDADEDNDDDVANA | not soluble
3 | YTVEPVQDGERSVTLRRAGGTPLVAAMYHLPAAGSPDFVGLDLAATILADTPSGRLYHALVPTKLASGVFGFTMDQLDPGLAMFGAQLQPGMDQDKALQTLTATLESLSSKPFSQEELERARSKWLTAWQQTYADPEKVGVALSEAIASGDWRLFFLQRDRVRDAKLDDVQRAAVAYLVRSNRTEGRYIPTEKPQRAPLAQRADLAAV | soluble
4 | MEGIMNPYTALPTPQQLLAIEQSVYSSDPFRQGLTPPQMPGDHMHPYGAEPLFHDLDSDDTSLSNLGDCFLATSEAGPLQSRVGNPIDHLYSMQNSYFTS | soluble
5 | MGSDKIHHHHHHMMQSAAINRRSFVKAAGLGFLATLTPRSLMALERADAVYASGIRAADGSFAIATVTERGEIVDQVALPARAHGIAFSASTGKTVAFARRPGTYAMIFDPWNKSEPIVISSREDRHFYGHGAFSPDGRLLYASENDFDGNRGMIGLYDATDRFTRIGEFETYGIGPHDMTVSDDGRLLIVANGGIETHPDFGRTKLNLGEMQPSLALIDAATGALVEKHVLPAEWAELSTRHVDLDGAGRIWFACQYEGHRKDLPPLVGHFAKGEDLSFIDLPEETTRRLANYVGAIAVNRSEGLVGITSPKGGASVTIDARTGKMLAETSVPDAAGIAPARNGFAVSSYDGDFLSTRSDVAWDQHIVRI | not soluble
6 | SYRSRSAFKLLEVNERHQILRPGLRVLDCGAAPGAWSQVAVQKVNAAGTDPSSPVGFVLGVDLLHIFPLEGATFLCPADVTDPRTSQRILEVLPGRRADVILSDMAPNATGFRDLDHDRLISLCLTLLSVTPDILQPGGTFLCKTWAGSQSRRLQRRLTEEFQNVRIIKPEASRKESSEVYFLATQYHGRKGTVKQ | soluble
7 | MSRRYDTIKHLGEGQFANVYLAQDLESGECVAIKKIKLGSREEAKDGINRTAIREIKLLKEIHHDNIIGLRDVIGHRTSIQLVFDFMDTDLEHVIKDKEIILMPAHIKNITMQMLLGLEFLHVHWILHRDLKPNNLLMNKMGRVKLTDFGLARFFGSPNRNYTHQVVTRWYRAPELLFGARSYGVGIDIWSVGCIIAELLLRNPIFPGESDIDQLVKIFNILGCPTPETWPNMTEMNSYVIIKPQTEYMALNYYFSAAPQDLLDLMAGMWTFDPIKRLTCTQSLQMEYFRTQPFCCLDEELPLPKKQQPQKRSRRLDDDGTRPVRRLNFD | not soluble
8 | MAIRVIGTGFGRTGTDSMREALTILGFGPCHHMSEVMGNEDQKRLWRALAKGAAPDWNQLFAGYASCIDWPSAHYWRDLIEFYPKARVILTYRSPESWWASFEKTILAGISQSTDQESLGLALISRQVFDGRPHDRANAIAVYEANVRAVIATVPPSRLLVHNLGDGWKPLCLHLDVPVPDKPYPNRNTTKDFQSALAQN | soluble
9 | MTCLSRDWATAQRLVEWALASTRCECFNVDSNFMAGLCLVENPTKQHYSFEVRKQVVDRFNAGQSKMDLAREFGLSSDQLVSSWVRAWRAGGDEALRPKPKGRPKGSASSKPLTEEDRLRREVEKLRAENAYLKKLRDLRNQRRS | not soluble
10 | MQMLIPQRLLLILNPILMMKRKKRKKRKKRRERETMMKIPRILKKLRRKRRTRRKRRKRRKRRRRKRRKRRRKRSPRKRRKRRNKDAFYILIISDPSRSLLFGFRKFSIIIQCLTYFSFHILFHNL | soluble
11 | MGSDKIHHHHHHMSRILITCAITGSIHTPSMSPYLPVTADEITQQAVDAADAGAAILHLHARDPETGRPSAEIGHFMGFLPRIKQSCEAVLNLSTGGSAVMTLDQRLAAPKQAAPEMCSLNMGTMNFALYPAADRISDWKHDWEEPFLRGSDDLVFKNTPRDMALILGEMGTKRGARFEFEVYDVGHLYMLRHFVDRGLVQGPLFIQFVFGVLGGIGPDPENLMHMKTVADKLFGQDYLFSVLAAGRHQIPLVTMAAAMGGHVRVGLEDSLMISRGVLARSNAEQVRKIRRIVEDLGREVASPGEARAMLGLKGADRTAF | not soluble
12 | SNAKSAVTAQSILEKADEIRFPQDSFQVNVAIRTAAPDHAEDLYRYQVLSKGNENSIVMITEPASERGQAILMKGRDLWVFMPSVSQPIRLSLSQRLTGQVANGDIARANFTGDYHPQLLRNESIDDEDYYVLELTGIDRSVTYQKVLLWVNQSNFRPYKAEFYSVSGRLLKTSRYENFDNILGEMRPTRIIMEDALKSGEVSVLDYSDMKLRDLPDKIFTKDYLKRLE | soluble
13 | GMTSTSITAVEYQSKRLESRLLKETREYVIALPEGYAQSLEAYPVVYLLDGEDQFDHMASLLQFLSQGTMPQIPKVIIVGIHNTNRMRDYTPTHTLVLPSGNKGNPQYQHTGGAGRFLDFIEKELAPSIESQLRTNGINVLVGHSFGGLVAMEALRTDRPLFSAYLALDTSLWFDSPHYLTLLEERVVKGDFKQKQLFMAIANNPLSPGFGVSSYHKDLNLAFADKLTKLAPKGLGFMAKYYPEETHQSVSHIGLYDGIRHLFKDFAIDIYSDSFSKQQVIDQYGVLSERFGHKVTPSQQYLEQLIQYSDRQQLTERKQMLEGLRQHFAKD | soluble
14 | MEKVYGLIGFPVEHSLSPLMHNDAFARLGIPARYHLFSVEPGQVGAAIAGVRALGIAGVNVTIPHKLAVIPFLDEVDEHARRIGAVNTIINNDGRLVGYNTDGLGYVQALEEEMNITLDGKRILVIGAGGGARGIYFSLLSTAAERIDMANRTVEKAERLVREGDERRSAYFSLAEAETRLAEYDIIINTTSVGMHPRVEVQPLSLERLRPGVIVSDIIYNPLETKWLKEAKARGARVQNGVGMLVYQGALAFEKWTGQWPDVNRMKQLVIEALRR | soluble
15 | MEPIDIARLEEAVVSFYRSNSQNQAITHEWLTDAEASPQAWQFSWQLMQLGKSQEVQFFGAITLHSKLMKHWHEVPPENREELKQKILESIVRFAGGPKIVLNRLCISLGAYIVHMLGEWPGAIEEVINTFQNQRMPNVSADVQLWIMLEVLTAIPEEAQVIHTSVKRVVLRAEIAKRVQLVIHTVERYLKLQMNRVWDAEAYSNMNRAVKCVGTWIKNIGYTIEGCVTITAVLLEVVHKCYWPCIHAGDGCMTADENELAESCLKTMVNIIIQPDCHNYPKTAFVLIKMFLDSLSEITKTEWKRENDNEDIIVHIYMLFVSSVERHSTLLLSGITSADPELSILVHRIVQEILHCTDKPGIYPVEESCSTMALAFWYMLQDEVFAMSNDEQKHKCWEYIKPLYAHLTRILVRKSEQPDEKSLAKWSSDDLECFRCYRQDISDTFMYCYDVLNDYILEILAAMLDEAIADLQRHPTHWTKLEACIYSFQSVAEHFGGEEKRQIPRLMRVLAEIPYEKLNVKLLGTALETMGSYCNWLMENPAYIPPAINLLVRGLNSSMSAQATLGLKELCRDCQLQLKPYADPLLNACHASLNTGRMKNSDSVRLMFSIGKLMSLLRPEEIPKYLDIIVSPCFEELQAICQADSKTPAARIRTIFRLNMISTLFSSLNTDVDEQATDQPIVQPVLLVMQRTMPIFKRIAEMWVEEIDVLEAACSAMKHAITNLRSSFQPMLQDLCLFIVASFQTRCCAPTLEISKTAIVMFFKDEGCKPLMQQLLREFIQHSFKLFESTPEQNFSNISDTMETFFGCLTQIIKKIPQVLEDKTLAYDRLVFYAQRGMTLPESGAIRNSIQFLTHFVMQSRNHAHVTEVVLATGEQTLYTAMMCVGYLTPRSQVDKFADILLAMNRKYAAEMAVWMKSLMSTPNFPTQLITDADKTRYTALIIKEKVNKRLLQQHLSEMAMKTRGLTEKFQ | soluble
16 | MSRSKKTRRISDIMPARKADKKPALPISNSKKRKPTRYELDVQAREEKKKRKHKGLPTGSRNVITEQKTASAKVKKDPRVGSRKKVPLMVEFVNKPEKGQMIKPVPLEPSNHATKATVSPEVELTQLENNECLNQLLDQLEAGKVLSTQDQQFVDECLDRVHELIIELGIEDDEENNEDLLLRQFETIDINKFK | not soluble
17 | MGSDKIHHHHHHSDFLNLTPYSEITAENFYQNEEDFRQAVNGAYEPLRNMYNTEEWNLGEAKSDNTTYIIHIAKSSLDGEDPDQFLETSTNGNVGTKYNNCYVIIGRCNRIISEIDQADFDAEAKSNLKGQALFLRAFCYFNLVQYFGGVPLHTTPSTVYEEAFKPRASVDEVYEQIMKDAQEASDLLPVKSRQEVGRVSKGSAQTLLGNVYMVLKRWAEAEQTLKEVVSSGEYELLADYGSIYSISNKNHKESIFEIQYMQDASLGQQSDFIYRFLPYMTNPSAITGTTPNPCPSNVDHGGFNTPTIDLINAYEKGDKRLDASIGMVEGKLTDSYALDATGVKSIVDYEPAPGITAYPFIKKYFHEHIKPYYTDDNWPVYRYAEVLLFLAEAINEQNRPDEAIHYLNDTFGQASIRGRAGLAPVKSQNVDALREAIYQERRIELAFENKRWTDLLRTGRAVEVMTRHGQKIKANPESYYWPDGVQPVANAYLFNPDKCLLPIPLREIDLNSELKQNPGY | not soluble
18 | MVQLFSAFDRETIERNLQEEKFDLVIVGGGITGAGIALDATSRGMSVALVEMGDFASGTSSRSTKLVHGGLRYLQQFEIKEVADLGKERAIVYENGPHVTTPEWMMLPFHKGGNMGKTTASFGIRLYDYLAGVKKNERRKILSAKETLAKNPFVKKDGLKGSGYYVEYRTDDARLTIEVMKKAVELGANAINYTKAEHFLYDDKKQVVGVTVTDRLTGKAYDIKGHRVINAAGPWVDKVRKLDYATNNKHLRLTKGIHLVIDKQKFPMEQAVYFDTPDGRMVFAIPRDKKVYVGTTDTVYDEAVINPKALESDHNYVIKAINYMFPDVHISEKDIESSWAGVRPLIYEEGKDPSEISRKDEVWFSESGLITMAGGKLTGYRKMAEKLLDGVSKTLSKETGKKYKPVQTKHLPISGGDIGGSEQLEAFLSKKAKEGNNRFGWTLEEGREIAKRFGSNIDQLFTYAQEHKDQNETTLPNSLYAELRYSIQHEAVTTPIDFLLRRTGYLLFDMPYLLEWKDAVVDEMAKQFHWSDDVKQTYIEELNIQINDAREPADWHDRLEHHHHHH | soluble
